These results are taken from patent US5824529.

The test system of data set [1] is PshAI restriction endonuclease (native) (Plesiomonas shigelloides). Description: cleavage_in_vitro. Particulars: total activity in Mono Q peak, assayed on lambda DNA.
The subject of data set [2] is PshAI restriction endonuclease (recombinant, pPshAIR1, NEB#984) (Plesiomonas shigelloides). As to the kind of experiment: cleavage_in_vitro. Particulars: crude extract, NEBuffer 2, 30 C, 30 min.

Regarding lambda DNA, the activity in data set [1] came out at 250000 units. Besides, the activity (units/g cells) in data set [2] worked out at 1e+07.
